50 sequences from the supplement of paper PMC9112550, “Optimization of the antimicrobial peptide Bac7 by deep mutational scanning” (BMC Biology, 2022) can be followed below.

This data set relates to Escherichia coli TOP10. In words: shrunken log2 fold change of peptide-encoding DNA abundance (4.5 h post-induction vs induction); higher = less antimicrobial activity (less host growth inhibition). The following applies: time post-induction: 4.5 h; library: site-saturation at positions 5, 18, 19, 20.
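Also: peptides expressed intracellularly from a pBAD plasmid library in pooled LB shake-flask culture, induced with 0.3% L-arabinose, DNA abundance read by NGS, three biological replicates, DESeq2 with apeglm shrinkage.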

As to RRIRQRPPRLPRPRPRPHRQPRP, the “shrunken log2 fold change” value was found to be 0.00471. The result for RRIRRRPPRLPRPRPRPWHNPRP reads -0.279; that for RRIRDRPPRLPRPRPRPRENPRP, 0.415.

For RRIRNRPPRLPRPRPRPYCRPRP, the “shrunken log2 fold change” value was -0.982. For RRIRFRPPRLPRPRPRPAMCPRP, the “shrunken log2 fold change” value was -0.596.

As to RRIRLRPPRLPRPRPRPMRKPRP, the “shrunken log2 fold change” value was determined as 0.651. On to RRIRGRPPRLPRPRPRPVGEPRP, for which the “shrunken log2 fold change” value came to 1.23.

Regarding RRIRPRPPRLPRPRPRPCRPPRP, the “shrunken log2 fold change” value was -0.168. The figure for RRIRDRPPRLPRPRPRPKVMPRP is -0.054; for RRIRARPPRLPRPRPRPFDPPRP it is 0.0109. The result for RRIRHRPPRLPRPRPRPFHHPRP reads 0.0477; that for RRIRSRPPRLPRPRPRPSLWPRP, 0.122; that for RRIRLRPPRLPRPRPRPANAPRP, 0.0811. RRIRHRPPRLPRPRPRPCEIPRP: the “shrunken log2 fold change” value is -0.171.

On to RRIRWRPPRLPRPRPRPLTPPRP, for which the “shrunken log2 fold change” value came to 0.412. The figure for RRIRIRPPRLPRPRPRPNSVPRP is -0.342; for RRIRNRPPRLPRPRPRPNRVPRP it is -0.0281; for RRIRYRPPRLPRPRPRPTVPPRP it is -0.382. The figure for RRIRCRPPRLPRPRPRPNFCPRP is -0.157. In the case of RRIRSRPPRLPRPRPRPWMQPRP, the “shrunken log2 fold change” value was -0.0251.

Regarding RRIRVRPPRLPRPRPRPGPGPRP, the “shrunken log2 fold change” value is 0.298. The result for RRIRLRPPRLPRPRPRPMPKPRP reads -0.105.

With RRIRFRPPRLPRPRPRPMWLPRP, the “shrunken log2 fold change” value came to 0.0605. For RRIRARPPRLPRPRPRPCQEPRP, the “shrunken log2 fold change” value turned out to be 0.094.

For RRIRQRPPRLPRPRPRPVKAPRP, the “shrunken log2 fold change” value was determined as 0.198. In the case of RRIRWRPPRLPRPRPRPRSWPRP, the “shrunken log2 fold change” value was 1.07.

With RRIRHRPPRLPRPRPRPKSFPRP, the “shrunken log2 fold change” value is -0.0233. Turning to RRIRERPPRLPRPRPRPAVGPRP, the “shrunken log2 fold change” value stood at 0.209. The figure for RRIRRRPPRLPRPRPRPDREPRP is 0.0377; for RRIRGRPPRLPRPRPRPTSYPRP it is 0.105; for RRIRCRPPRLPRPRPRPWCNPRP it is -0.412. The result for RRIRKRPPRLPRPRPRPHDFPRP reads -0.0488; that for RRIRSRPPRLPRPRPRPTWFPRP, -0.216; that for RRIRLRPPRLPRPRPRPYMKPRP, -0.804. With RRIRWRPPRLPRPRPRPYNAPRP, the “shrunken log2 fold change” value was -0.307.

With RRIRYRPPRLPRPRPRPTATPRP, the “shrunken log2 fold change” value was -0.038. The figure for RRIRGRPPRLPRPRPRPARDPRP is 0.585; for RRIRVRPPRLPRPRPRPLFPPRP it is 0.0958; for RRIRYRPPRLPRPRPRPKNYPRP it is -1.38. Take RRIRTRPPRLPRPRPRPNFNPRP: the “shrunken log2 fold change” value was -0.356. For RRIRQRPPRLPRPRPRPIGVPRP, the “shrunken log2 fold change” value was -0.00783.

In the case of RRIRGRPPRLPRPRPRPHNCPRP, the “shrunken log2 fold change” value is -0.0265. The result for RRIRKRPPRLPRPRPRPMTAPRP reads 0.832. As for RRIRLRPPRLPRPRPRPRMKPRP, the “shrunken log2 fold change” value is -0.00259. The result for RRIRSRPPRLPRPRPRPREGPRP reads 2.98. As to RRIRSRPPRLPRPRPRPKQGPRP, the “shrunken log2 fold change” value turned out to be 0.245.

RRIRTRPPRLPRPRPRPLCHPRP: the “shrunken log2 fold change” value is -0.175.

As for RRIRSRPPRLPRPRPRPRLWPRP, the “shrunken log2 fold change” value was determined as 0.397. As to RRIRLRPPRLPRPRPRPNSPPRP, the “shrunken log2 fold change” value is -0.418. The result for RRIRYRPPRLPRPRPRPTYPPRP reads 0.105.
